Assay results from patent publication US8809529B2, “Imidazo[1,2-α]pyrazine derivatives” (Promega Corporation, priority 2010, dated 2014).
Read-outs that look alike come from different tables or passages of the source.

Assays:
[1] = Stability of coelenterazines in reporter reagent buffer (T90); conditions: time for luminescent signal to decay by 10% at 22° C.; read with OgLuc variant IV lysate
HEK293 cells [2] = experiment: Toxicity of coelenterazines in HEK293 cells (CELLTITER-GLO); conditions: 24 hrs after compound addition
HEK293 cells [3] = conditions: human, 24 h
L27V02 enzyme = molecular target: T1, L27V02 enzyme (Oplophorus gracilirostris, UniProt Q9GV45, A31E/A60N/A81I/F95D/I117V/K70R/L54V/L99Q/M102K/N193R/P142E/Q151K/Q38R/Q45L/V71I/Y165I); experiment: Luminescence of compounds with purified L27V02 enzyme; type: biochemical; conditions: 20 μM compound, 36 pM L27V02, pH 7, 3 min
T1 construct: The N-terminus of the OgLuc variant L27V is methionine, valine and phenylalanine, i.e., MVF; made in house
Description: Compounds PBI-4525, PBI-4540 and PBI-4541 were screened for their ability to detect luminescence. […] The assay reagent was then mixed with 36 pM purified L27V02 enzyme (described in Example 25B), in DMEM without Phenol Red and 0.1% PRIONEX®. As a control, assay buffer with 20 μM PBI-3939 or PBI-4528 was used. Luminescence was measured as previously described 3 min after the assay reagent was added to the enzyme mixture.

[4] = Luminescence of OgLuc variants expressed in NIH3T3 cells; type: cell-based
Description: (§1) The PCR library in the pF4Ag-based non-fusion background was screened for additional variants with increased luminescence compared to 9B8 opt+K33N+170G (SEQ ID NOs: 68 and 69). Selected variants were then assayed in HEK293 and NIH3T3 cells. For each cell type, 15,000 cells were plated and grown overnight at 37° C. The next day, the cells were transfected as described in Example 25 with 10 ng pGL4.13 (Promega Corp.) as a transfection control and 100 ng of the OgLuc test DNA. The media was removed, and the cells were lysed with 100 μL of lysis buffer as described in Example 25 except the lysis buffer contained 100 mM MES pH 6.0 instead of HEPES, and luminescence measured using a GLOMAX® Luminometer.
(§2) Based on the above data, further combination variants were designed and generated (see Table 10) in the context of the pF4Ag-based non-fusion vector background without the 170G. The variants were analyzed in E. coli, HEK293 and NIH3T3 cells as described above and compared to 9B8 opt+K33N. The variants were also examined for luminescence with native coelenterazine.
(§3) The brightness of the variants expressed in HEK293 and NIH3T3 cells was measured as described previously. The luminescence of the variants was normalized to the luminescence generated by 9B8 opt (Table 27).
(§4) The variants 9B8 opt+K33N+T39T+K43R+Y68D (“V2”; SEQ ID NOs: 92 and 93), 9B8 opt+K33N+L27V+K43R+Y68D (SEQ ID NOs: 339 and 340), 9B8 opt+K33N+L27V+T39T+K43R+S66N (SEQ ID NOs: 341 and 342), and 9B8 opt+K33N+L27V+T39T+K43R+Y68D (“L27V”; SEQ ID NOs: 88 and 89) were subcloned into the Id-OgLuc-HT7 sandwich background as described above and assayed in HEK293 and NIH3T3 cells as described above. The luminescence generated by the sandwiched variants were compared to the luminescence generated by the […] sandwich (SEQ ID NOs: 59 and 60) (Table 38). The L27V sandwich (SEQ ID NOs: 90 and 91) and V2 sandwich (SEQ ID NOs: 94 and 95) had at least 1.3× fold-increase in luminescence in HEK293 and NIH3T3 cells.
(§5) The sandwich and non-sandwich versions of the variants V2, 9B8 opt+K33N+L27V+K43R+Y68D, 9B8 opt+K33N+L27V+T39T+K43R+S66N, and L27V were assayed in HEK293 and NIH3T3 cells as described in Example 37. The luminescence generated by the non-sandwiched variants was compared to the luminescence generated by the sandwiched variants (Table 39).

[5] = Brightness and relative specificity of 9B8 and 9B8 opt+K33N variants in E. coli lysates; type: biochemical
Description: Additional variants with improved relative specificity to novel PBI-3939 were generated as described previously by saturating amino acid positions 18, 68, 72, 75, and 90 in variant 9B8. […] Relative specificity was determined from the ratio of the luminescence of the variant with PBI-3939 to the luminescence of the variant with native coelenterazine, normalized to the ratio of corresponding luminescence of 9B8. Table 8 lists 9B8 variants (“Variant”) with at least 1.1× fold-increase in relative specificity for PBI-3939. […] 9B8 variants with amino acid substitutions K, D, F, G, Y, W, and H at position 18 had the highest fold improvement in relative specificity.
A new OgLuc library was created using 9B8opt+K33N as a starting template. The random library was created using DIVERSIFY® PCR Random Mutagenesis Kit (ClonTech; Catalog #630703). Condition 5 (as listed in the user manual) was used to generate additional variants, and the average mutation rate was calculated to be 2.6 mutations per gene by compiling sequence data from 83 randomly selected clones. This PCR library was cloned into the pF4Ag-based, non-fusion vector background described previously and the sandwich background, i.e., Id-OgLuc-HT7 (described in Example 45). Variants in the pF4Ag-base non-fusion vector background are designated with (NF). Variants in the sandwich vector background are designated with (F). In order to clone the PCR product into both vectors, an amino acid, i.e., a glycine, was appended to the variant sequence in pF4Ag, generating a new position 170 in the OgLuc variant (“170G”). The 170G is present in the sandwich construct, but in this case is considered part of the linker between OgLuc and HT7. For each library, 4,400 E. coli clones were assayed as described previously with the following exceptions. […] The assay buffer contained 100 mM MES pH 6.0 instead of HEPES, and 35 mM thiourea. The assay volumes were as follows: 10 μL cells, 40 μL lysis buffer, and 50 μL assay buffer.
as §2
E. coli lysates containing the variants were prepared and analyzed as described previously. Luminescence generated from the lysates was measured using the novel PBI-3939 and native coelenterazine as substrates. The luminescence of the variants was normalized to the luminescence generated by 9B8 opt (Table 12). The relative specificity of the variants for PBI-3939 and native coelenterazine was calculated by dividing the luminescence of the variants using PBI-3939 as a substrate with the luminescence of the variants using native coelenterazine as a substrate (Table 12).

[6] = type: biochemical, E. coli
Description: The signal stability of 15C1 with PBI-3945 and 9B8 with PBI-3889 was measured and compared to IV. E. coli containing plasmid DNA encoding 15C1, 9B8, or IV were grown and induced as described previously in 8-well replicates. Cells were lysed using a lysis buffer containing of 300 mM HEPES pH 8.0, 0.3× Passive Lysis Buffer (“PLB”; Promega Corp. Cat. No. E194A), 0.3 mg/mL lysozyme, and 0.003 U/μL RQ1 DNase. Lysates were diluted 1:1000 in lysis buffer and measured for luminescence using a TECAN® INFINITE® F500 luminometer. Measurements were taken immediately after the addition to 10 μL of diluted lysate sample of 50 μL of “Glo” 0.5% TERGITOL assay buffer (“0.5% TERGITOL”), which contained 150 mM KCl, 1 mM CDTA, 10 mM DTT, 100 mM thiourea, 0.5% TERGITOL® NP-9 (v/v), and 20 μM of either novel coelenterazines PBI-3945 or PBI 3889.
The signal stability of the variants was determined by re-reading the plate every 30 seconds for a length of time after the addition of the assay buffer to the sample. The signal half-life was determined from these measurements using methods known in the art. The average signal half-life was compared between the variants and IV. […] At t=10 min, luminescence for 15C1 with PBI-3945 and 9B8 with PBI-3889 were equivalent.
E. coli lysates containing the variants were prepared and analyzed as described previously except the assay buffer contained 0.25% TERGITOL® NP-9 (v/v), 100 mM MES pH 6.0, 1 mM CDTA, 150 mM KCl, 35 mM thiourea, 2 mM DTT, and 20 μM PBI-3939.

[7] = Enzyme kinetics of OgLuc variants (Km, Vmax); type: biochemical, E. coli; conditions: PBI-3939, average of three replicates
Description: Using methods known in the art, enzyme kinetic assays measuring luminescence were performed with the lysates of E. coli containing N and the IV variants 15C1, 9B8, 9F6, and 9A3. […] Two fold serial dilutions of PBI-3939 in the assay buffer described previously in Example 26 were assayed with the diluted lysates. […] Variants 9B8 and 9F6 had higher Km values compared to IV while Km values for the other variants were unchanged.
Luminescence was measured on a TECAN® INFINITE® F500 luminometer.
The enzyme kinetics values were determined for the OgLuc variants as described previously, except luminescence was measured using a GLOMAX® luminometer. Three replicates were used for each variant.

[8] = Luminescence of OgLuc variants expressed in HEK293 cells; type: cell-based, human
Description: as §1, §2, §3, §4, §5

[9] = type: physicochemical, E. coli; conditions: 60° C., assay buffer 100 mM MES pH 6.0
Description: Aliquots were removed at different time-points and placed on dry ice to freeze the samples. […] Luminescence was measured on a GLOMAX® luminometer (Promega Corp.).
The thermal stability of the variants at 60° C. was examined as described above, except the assay buffer contained 100 mM MES pH 6.0 instead of HEPES.

[10] = relative specificity for PBI-3939

## O=c1c(Cc2ccccc2)nc2c(Cc3ccccc3)[nH]c(-c3ccccc3)cn1-2 [Coelenterazine hh, bis-deoxycoelenterazine, reference compound]
[1]
  Stability (pH 8) (T90 in hrs): 2.0 hrs
HEK293 cells [2]
  Viability (normalized to vehicle (DMSO) control) (%): 87%

## Oc1ccc(Cc2nc3c(Cc4ccccc4)nc(-c4ccc(O)cc4)cn3c2O)cc1 [Native coelenterazine, coelenterazine, reference compound]
other
  Stability (pH 8) (T90 in hrs): 1.7 hrs
HEK293 cells [3]
  Viability (normalized to vehicle (DMSO) control) (%): 100%

## O=c1c(Cc2ccc(O)cc2)nc2c(Cc3ccccc3)[nH]c(-c3ccccc3)cn1-2 [PBI-3840, 8-benzyl-2-(4-hydroxybenzyl)-6-phenylimidazo[1,2-a]pyrazin-3(7H)-one]
HEK293 cells [3]
  Viability (normalized to vehicle (DMSO) control) (%): 60%

## O=c1c(Cc2cccs2)nc2c(Cc3ccccc3)[nH]c(-c3ccccc3)cn1-2 [PBI-3889, 8-benzyl-6-phenyl-2-(thiophen-2-ylmethyl)imidazo[1,2-a]pyrazin-3(7H)-one]
other
  Stability (pH 8) (T90 in hrs): 2.9 hrs
HEK293 cells [3]
  Viability (normalized to vehicle (DMSO) control) (%): 90%

## Cc1[nH]c(-c2ccccc2)cn2c(=O)c(Cc3ccc(O)cc3)nc1-2 [PBI-3896, 2-(4-hydroxybenzyl)-8-methyl-6-phenylimidazo[1,2-a]pyrazin-3(7H)-one]
other
  Stability (pH 8) (T90 in hrs): 2.8 hrs

## O=c1c(Cc2ccco2)nc2c(Cc3ccccc3)[nH]c(-c3ccc(O)cc3)cn1-2 [PBI-3945]
[1]
  Stability (pH 8) (T90 in hrs): 3.3 hrs
HEK293 cells [2]
  Viability (normalized to vehicle (DMSO) control) (%): 100%

## O=c1c(Cc2cccs2)nc2c(Cc3ccccc3)[nH]c(-c3ccc(O)cc3)cn1-2 [PBI-4002]
[1]
  Stability (pH 8) (T90 in hrs): 3.5 hrs
HEK293 cells [2]
  Viability (normalized to vehicle (DMSO) control) (%): 100%

## Cn1ccnc1Cc1nc2c(Cc3ccccc3)[nH]c(-c3ccccc3)cn-2c1=O [PBI-4525, 8-benzyl-2-((1-methyl-1H-imidazol-2-yl)methyl)-6-phenylimidazo[1,2-a]pyrazin-3(7H)-one]
L27V02 enzyme
  RLU: 20,655 RLU

B1: L27V, K43R, Y68D: 9B8 opt+K33N+L27V+K43R+Y68D (protein)
chain: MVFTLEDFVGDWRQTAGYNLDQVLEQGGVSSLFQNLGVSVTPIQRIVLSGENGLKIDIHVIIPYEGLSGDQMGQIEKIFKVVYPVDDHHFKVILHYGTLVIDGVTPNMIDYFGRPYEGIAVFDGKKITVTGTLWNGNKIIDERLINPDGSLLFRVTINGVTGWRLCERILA
[4]
  Fold-Decrease in Luminescence in the Presence of Sandwich Background: NIH 3T3 cells: 22
[4]; luminescence, PBI-3939
  Fold over 9B8 opt + K33N: NIH3T3: 0.8
[4]; normalized to 9B8 opt
  Increase in Luminescence: NIH3T3: 1.5
[4]; [10]
  Fold over Native Coelenterazine: NIH3T3: 98
[5]; bacterial lysates, PBI-3939 luminescence divided by native coelenterazine luminescence
  Fold over coelenterazine: 110
[5]; bacterial lysates, luminescence normalized to 9B8 opt
  Fold over 9B8: 1.3
[5]; in the three cell types examined
  fold-increase in relative specificity over 9B8 opt+K33N: 5 ×
[5]; luminescence, PBI-3939
  Fold over 9B8 opt + K33N: E. coli: 1.2
[5]; [10]
  Fold over Native Coelenterazine: E. coli: 98.3
[6]
  signal half life: 2.03 h
[7]
  Km: 13.7 µM
  Vmax: 130,000,000 RLU/0.5 sec
[8]
  Fold-Decrease in Luminescence in the Presence of Sandwich Background: HEK 293: 8
[8]; luminescence, PBI-3939
  Fold over 9B8 opt + K33N: HEK293: 0.9
[8]; normalized to 9B8 opt
  Increase in Luminescence: HEK293: 1.6
[8]; [10]
  Fold over Native Coelenterazine: HEK293: 101
[9]
  ½ life hours: 23.2 h
